Reference: the RNAGym collection of RNA variant scans (doi:10.7554/elife.80360)

B1: HDV Ribozyme (parent)
chain: GGCCGGCAUGGUCCCAGCCUCCUCGCUGGCGCCGGCUGGGCAACAUUCCGAGGGGACCGUCCCCUCGGUAAUGGCGAAUGGGACCCA

Variants of: B1
Assay: self-cleavage, relative activity (ratio to wild type); higher = more cleavage; co-transcriptional

Variant | self-cleavage
C36A U47C | 0.0519
G67U G82U | 0.227
U46A C86G | 0.831
A71C C75U | 0.199
G1U C66U | 0.296
U12G U72A | 0.525
C15U C48G | 1.13
C3G C18U | 0.04
C36A C62A | 0.261
C49U G74U | 0.507
U60A G76A | 1
C36G G76C | 0.0692
C7G G59A | 0.332
G1C G25A | 0.0755
A8U C33A | 0.185
C32U U72A | 0.692
G29U C84U | 0.0594
C49G G67U | 0.9
C33A C63G | 0.283
C44G C63A | 0.491
G39U G80A | 0.151
G52U A87U | 1
G28C U72C | 0
G17U G68U | 0.611

Variant | self-cleavage
G34C G52C | 0.267
G34A A87U | 0.196
A42U C66G | 0.386
C22U G55A | 0.717
G10U C13G | 0
A70C A77C | 0.244
G17A C26A | 0.798
C24U C57G | 0.779
U27G C58A | 0.516
C24G C66G | 0.13
C4U C15A | 0.302
C4U C15U | 0.731
C21G G52C | 0.111
U23A G54U | 0.937
G29U C57A | 0.151
A16G A42U | 0.396
A51C C66U | 0.974
G1C A16U | 0.111
C3G C64G | 0.546
C36G A78C | 0.161
G40U G53U | 0.75
C33U A42C | 0.259
G39C A45C | 0.198
C21G G81C | 0.0504

Variant | self-cleavage
G38A C57A | 0.128
U20C G35C | 0
C22A G81U | 0.0536
U20C C84U | 0.111
A56G C62U | 0.912
U23C U69C | 0.886
A43U A78C | 0.0817
C26U G74A | 0.717
G25A C49A | 0.101
A43G U47A | 0.383
G1U C18G | 0.151
U72G G73U | 0.554
U9A C22U | 0.831
G1U C32A | 0.289
C62G A78G | 0.745
G1U G55U | 0.455
C24U C30G | 0.122
G40U G54C | 0.513
C3U G38C | 0.122
C4G C15U | 0.277
U9A G11C | 0.609
G1A U79A | 0.208
C30G C85A | 0.0308
C19G U47C | 0.0852

Variant | self-cleavage
C3U U12G | 0.429
U9G C85G | 0.895
G35U G50U | 0.426
G6U G67A | 0.517
A51U C57A | 0.814
G5U A87U | 0.293
C32G C58A | 0.189
C26A G82U | 0.317
C3U C44A | 0.492
U37C C64U | 1.19
G11U G35C | 0.0449
U37A G80U | 0.0727
C32G C86G | 0.119
C41G C57U | 1.04
G54U G76U | 1.09
G6C C84A | 0.332
U47A A51C | 1.13
C30U G31C | 0.13
C24A G31A | 0.0332
C21A U46C | 0.0536
C32A U65A | 0.309
G39A G67C | 0.665
G40C U46G | 0.0831
G1A C14U | 0.415

Variant | self-cleavage
A70U G74C | 0.237
C33G G67C | 0.0978
G74A G80U | 0.124
G10U A43U | 0.284
C33A G50U | 0.295
C7A G73A | 0.106
G10C C19U | 0.0264
C21U G25U | 0.0811
C41A U72C | 0.653
G5A G38C | 0.208
C22G G74U | 0.0841
U23A U65G | 1.18
U69G A83U | 0.465
C58G C84U | 0.721
C21U C62A | 0.214
C61G U72G | 0.332
A16U C64G | 0.782
G50U G59A | 0.852
U27G C44U | 0.688
G40C A71U | 0.228
C3A G31U | 0.0339
U20C G38A | 0
A8G C30G | 0.128
U20G U27G | 0.332

Variant | self-cleavage
C14G A45G | 0.0875
G80A C85U | 0.339
C63G C84A | 1.06
C61G C64G | 0.527
G31U G50A | 0.674
G10C G34C | 0.289
G6A U65G | 0.506
G76U C86A | 0.615
A42G G80A | 0.0997
G34U U47G | 0.267
G40U G82A | 0.256
C36A C63U | 0.177
G31C U46C | 0.178
C4A G54A | 0.268
C15G C62A | 0.554
U72G A87U | 0.735
C49U G59C | 0.799
C57A G68A | 0.819
A51U G82C | 0.282
C22A C32U | 0.19
G68C U69A | 0.739
G39U U46C | 0.486
C4A G17A | 0.0396
A16G U23C | 1.14

Variant | self-cleavage
C21G C66A | 0.0739
U27C G76A | 0.869
C14U G54A | 1.04
A8C U9A | 0.755
C24A C57A | 0.842
G29A G40A | 0.237
G35A G38U | 0.145
C30G C57G | 0.208
U47A A56U | 0.856
C13G U65G | 0.115
G5C C7G | 0
G55C G59A | 1.06
G55C A78U | 0.324
C44G U60G | 0.76
G11C U20A | 0.0978
U23C C26U | 1.26
C21G U79A | 0.0875
G1A C24A | 0.119
U65C U79G | 0.396
G50A C75A | 0.178
C4U G52A | 0.443
C61U C62U | 0.644
C19U C85U | 0.22
G31A C33G | 0

Variant | self-cleavage
C36A U69A | 0.0755
G29U G76U | 0.137
C19G G50A | 0.073
G40C A43C | 0.123
G28C G76C | 0.136
G55U G73C | 0.499
A8U G25U | 0.106
G59U G82A | 0.338
C22A G35A | 0.0386
C30U C62G | 0.475
C64U U69C | 1.17
C21U G35U | 0.0804
G11U G17C | 0.203
C30U C84U | 0.319
A45U A77C | 0.155
G11C C57A | 0.453
A45C U46G | 0.554
G55U U60A | 0.886
G40U C75A | 0.12
A43U G81A | 0.148
G5A C75A | 0.113
G74C G81C | 0.196
C36A G82C | 0.112
G25U G29C | 0.106

Variant | self-cleavage
C49G A70U | 0.429
A45U G54C | 0.849
G11A G38C | 0.0911
A43C G55U | 0.748
C7G C41U | 0.0615
G67A U72G | 0.383
G17U | 0.548
C24A G74U | 0.16
U46G G59U | 0.902
U20C G25C | 0.227
A43U U46C | 0.383
C7A U12C | 0.172
C15A C58U | 0.458
G1C C15A | 0
C30G A87U | 0.14
G10C U79A | 0.277
U9A A77C | 0.383
A16G A56C | 0.862
A16G A56U | 1.25
C3G C48A | 0.698
C18G G31C | 0.0449
G5A C44G | 0.0369
U9C U47G | 1.42
U46G C63A | 0.415

Variant | self-cleavage
G2A G54U | 0.127
U9A G31U | 0.208
C57U C86G | 0.862
G50A A83G | 0.99
G35U G53U | 0.288
G34U U69G | 0.0361
C64U A83U | 0.361
C33U U79G | 0.429
C22A G82A | 0.0767
G35C A87G | 0.205
U37G U47C | 0.128
G73U G80A | 0.0839
G10U C62A | 0.787
U46C A87C | 0.91
C14U U27C | 0.723
C19G C86U | 0.26
C63G G80U | 0.199
C15G C32G | 0.145
A8C C61U | 0.643
U9A C33G | 0.0692
C4G G73U | 0.086
G40C C49A | 0.381
C41A A45C | 0.504
U65A | 0.966

Variant | self-cleavage
U9G G73U | 0.0831
C7G G29U | 0
G31A A43G | 0.0386
C15U C66U | 1.21
C26G A56U | 1.23
G11C C18U | 0.0992
A42G G67C | 0.365
C58A A83C | 0.723
A16U C22A | 0.604
A16G A70U | 0.499
G29C G73U | 0.0583
C26U G39C | 0.475
U20C C21U | 0.0339
A45C G76C | 0.68
C44U C84G | 0.404
A51G C84U | 0.975
A45U C58U | 0.849
U27A G59A | 0.919
C14A U27C | 0.554
C30U U37A | 0.256
G34A C57A | 0.13
G40A C57G | 1.02
C15G A43C | 0.0875
C49G G53U | 0.723

Variant | self-cleavage
G54C A77C | 0.426
A51U U79G | 0.534
U79A G80C | 0.204
G31A U72C | 0.256
C19G C85U | 0
U37G A87C | 0.0764
U37G A87U | 0.148
U37A U47A | 0.201
C21A A83G | 0.0519
A70U G73U | 0.169
C14U G28C | 0.237
C21G G38U | 0.0702
G28U C64A | 0.125
U9A C13A | 0.119
G38U A70C | 0.158
G6C G67U | 0.268
G5A A56C | 0.107
G39A C41G | 0.228
U12A U47G | 0.262
G11U G67C | 0.262
C64A A87C | 0.779
G31C C62U | 0.386
G25U U47A | 0.161
C19G G76U | 0.0791

Variant | self-cleavage
U46G A70G | 0.511
G53U G59A | 1.14
U12G C14G | 0
G67A G76U | 0.965
G17U C18U | 0.189
U12G C26A | 0.748
G35A G74A | 0.157
G17U A78C | 0.131
C36G G54U | 0.166
G31U G81A | 0.162
G53C C75U | 0.131
U9C G31C | 0.598
U47G G76A | 1.25
G17U C19G | 0
G10U C21A | 0.0332
G10U C41G | 0.619
U27C A78G | 0.227
G17U G82A | 0.543
C44A G67C | 0.712
U37G C44G | 0.0692
C33G A42U | 0.0678
G40A U60C | 1.11
G11C U12C | 0.145
C41G C75U | 0.095

Variant | self-cleavage
G5A U23C | 0.0573
A42U G80C | 0.166
G39C A77C | 0.0519
C7G C48A | 0.262
G11U C57U | 0.282
G52U G53C | 0.672
G6C G40C | 0.175
G1C A45G | 0.192
A8U G10U | 0.341
U60C G74U | 0.348
C21G U23G | 0.0755
G67C G80A | 0.464
C13G G55U | 0.0583
C15G C48U | 0.237
C15G C48A | 0.623
C19A G31A | 0.117
G25A U65A | 0.122
G6U G59U | 0.69
C15U C33G | 0.166
G52A C66U | 0.982
C36G C75A | 0.151
G1C C19A | 0.201
